Target: aggrecan
Assay: solid-phase binding assay: aggrecan-coated wells, 10 ng/well IGFBP-2, detected with 125I-IGF-I

A reduction in binding (against native IGFBP-2) of 75% was found for “HBD-IGFBP-2 mutant (179PKKLRP184 mutated to 179PNNLAP184) (from UniProt P18065 37-325)” in this work.

From patent US20080286287A1
